We go through four sequences from the Immune Epitope Database (IEDB).

One assay has as its target HLA-A*01:01. The assay can be described thus: IEDB peptide-MHC binding, purified MHC/direct/fluorescence; filed as Kd, often an IC50 or EC50 that approximates it; ≥ and ≤ were set here for values at or beyond the usual limits of such assays.
A further assay addresses HLA-A*02:01. Described as above.
Another assay addresses HLA-A*24:03. The description is as above. Particulars: source organism: Camelpox virus M-96.
A further assay concerns the target HLA-A*69:01. The description is as above.
A further assay concerns the target HLA-B*07:02. Described as above.
The target in assay [1] is HLA-B*15:01. The description is as above.
The target of assay [2] is HLA-B*15:17. Described as above. Particulars: source organism: Camelpox virus M-96.
The target of another assay is HLA-B*57:01. The assay is described as above.
A further assay deals with HLA-B*58:01. The description is as above.
For a further assay, the target named is HLA-C*07:02. Described as above.
For the next assay, the target named is HLA-A*02:06. Description: IEDB peptide-MHC binding, purified MHC/competitive/fluorescence; filed as Kd, often an IC50 or EC50 that approximates it; ≥ and ≤ were set here for values at or beyond the usual limits of such assays. Particulars: source organism: Vaccinia virus WR.
The target of assay [3] is HLA-A*11:01. The description is as above.
The next assay deals with HLA-A*26:02. The description is as above.
A further assay deals with HLA-A*30:01. The assay is described as above.
The target in assay [4] is HLA-A*31:01. Described as above.
In assay [5] the target is HLA-A*68:02. The description is as above. As to conditions: source organism: Vaccinia virus WR.
For a further assay, the target named is HLA-B*18:01. The assay is described as above.
Assay [6] deals with HLA-B*39:01. The assay is described as above. Particulars: source organism: Vaccinia virus WR.
Assay [7] deals with HLA-A*11:01. Description: IEDB peptide-MHC binding, purified MHC/direct/fluorescence; filed as Kd, often an IC50 or EC50 that approximates it; ≥ and ≤ were set here for values at or beyond the usual limits of such assays. Particulars: source organism: Camelpox virus M-96.
The target in assay [8] is HLA-A*68:02. Described as above.
A further assay deals with HLA-B*08:01. The assay is described as above.
The next assay deals with HLA-B*08:03. The description is as above. Particulars: source organism: Variola virus.
The target in a further assay is HLA-B*15:09. The description is as above. Particulars: source organism: Variola virus.
Assay [9] addresses HLA-B*39:01. The assay is described as above. Particulars: source organism: Variola virus.
Another assay concerns the target HLA-C*14:02. The description is as above. Particulars: source organism: Vaccinia virus Copenhagen.
A further assay concerns the target HLA-A*02:03. Description: IEDB peptide-MHC binding, purified MHC/competitive/fluorescence; filed as Kd, often an IC50 or EC50 that approximates it; ≥ and ≤ were set here for values at or beyond the usual limits of such assays. Particulars: source organism: Vaccinia virus Copenhagen.
Assay [10] deals with HLA-B*15:01. The assay is described as above. Particulars: source organism: Vaccinia virus Copenhagen.
Assay [11] addresses HLA-B*15:17. The description is as above.
In a further assay the target is HLA-A*03:01. Description: IEDB peptide-MHC binding, purified MHC/direct/fluorescence; filed as Kd, often an IC50 or EC50 that approximates it; ≥ and ≤ were set here for values at or beyond the usual limits of such assays. Particulars: source organism: Influenza A virus (A/chicken/Hubei/wk/1997(H5N1)).
The target in assay [12] is HLA-A*31:01. The assay is described as above. Particulars: source organism: Influenza A virus (A/chicken/Hubei/wk/1997(H5N1)).
Another assay concerns the target HLA-B*48:01. The description is as above. As to conditions: source organism: Influenza A virus (A/chicken/Hubei/wk/1997(H5N1)).
The target of a further assay is HLA-B*73:01. The description is as above. Particulars: source organism: Influenza A virus (A/chicken/Hubei/wk/1997(H5N1)).
Another assay concerns the target HLA-C*06:02. The assay is described as above. Particulars: source organism: Listeria monocytogenes serotype 1/2a str. F6854.
The target of a further assay is HLA-C*15:02. The assay is described as above. Particulars: source organism: Listeria monocytogenes serotype 1/2a str. F6854.
The next assay addresses HLA-B*46:01. The assay can be described thus: IEDB peptide-MHC binding, purified MHC/competitive/fluorescence; filed as Kd, often an IC50 or EC50 that approximates it; ≥ and ≤ were set here for values at or beyond the usual limits of such assays. As to conditions: source organism: Listeria monocytogenes serotype 1/2a str. F6854.
Setting [13] is: source organism: Camelpox virus M-96.
Where [14] appears, read: source organism: Vaccinia virus WR.
Setting [15] is: source organism: Vaccinia virus Copenhagen.
The mark [16] stands for this setting: source organism: Influenza A virus (A/chicken/Hubei/wk/1997(H5N1)).
Where [17] appears, read: source organism: Influenza A virus H3N2.

pKd: −log10 of the molar value.

In the case of NYFNRMFHF, the pKd was not above 4.70 with HLA-A*01:01 (setting [13]); not above 4.70 with HLA-A*02:01 (setting [13]); 8.37 with HLA-A*24:03; not above 4.70 with HLA-A*69:01 (setting [13]); not above 4.70 in the assay with HLA-B*07:02 (setting [13]); not above 4.70 in the assay with HLA-B*15:01 [1] (setting [13]). Further, the pKd in the assay with HLA-B*15:17 [2] was not above 4.70; in the assay with HLA-B*57:01 (setting [13]), not above 4.70; in the assay with HLA-B*58:01 (setting [13]) it was not above 4.70; with HLA-C*07:02 (setting [14]), 8.52; with HLA-A*02:06, 5.47; in the assay with HLA-A*11:01 [3] (setting [14]), not above 4.70. In addition, the pKd is not above 4.70 with HLA-A*26:02 (setting [14]); 5.49 with HLA-A*30:01 (setting [14]); 5.64 in the assay with HLA-A*31:01 [4] (setting [14]); not above 4.70 in the assay with HLA-A*68:02 [5]; 6.05 with HLA-B*18:01 (setting [14]); 5.52 with HLA-B*39:01 [6].

With KYFDDVTAF, the pKd was not above 4.70 in the assay with HLA-A*01:01 (setting [13]); not above 4.70 in the assay with HLA-A*02:01 (setting [13]); not above 4.70 in the assay with HLA-A*11:01 [7]; 8.26 with HLA-A*24:03; not above 4.70 with HLA-A*68:02 [8] (setting [13]); not above 4.70 with HLA-A*69:01 (setting [13]). The pKd with HLA-B*07:02 (setting [13]), with HLA-B*08:01 (source organism: Variola virus), in the assay with HLA-B*08:03, with HLA-B*15:09, with HLA-B*39:01 [9] and in the assay with HLA-B*57:01 (setting [13]) was not above 4.70 throughout. Further, the pKd with HLA-B*58:01 (setting [13]) was not above 4.70; in the assay with HLA-C*14:02, not below 9.00; in the assay with HLA-A*02:03, 5.40; with HLA-A*26:02 (setting [15]), not above 4.70; with HLA-A*31:01 [4] (setting [15]), 5.53; with HLA-B*15:01 [10], 5.68. The results for the pKd with HLA-B*15:17 [11] (setting [15]) and with HLA-B*18:01 (setting [15]) were 5.36 and 7.06, respectively.

Turning to MKWMMAMKY, the pKd with HLA-A*01:01 (setting [16]), in the assay with HLA-A*02:01 (setting [16]), in the assay with HLA-A*03:01, with HLA-A*31:01 [12], with HLA-A*68:02 [8] (setting [16]) and with HLA-A*69:01 (setting [16]) was not above 4.70 each time. Besides, the pKd in the assay with HLA-B*07:02 (setting [16]), in the assay with HLA-B*08:01 (source organism: Influenza A virus(A/swine/Shandong/fNY/2003(H9N2))), with HLA-B*15:01 [1] (setting [16]), with HLA-B*48:01, with HLA-B*57:01 (setting [16]) and with HLA-B*58:01 (setting [16]) was not above 4.70 throughout. Besides, the pKd with HLA-B*73:01 was not above 4.70; with HLA-A*11:01 [3] (setting [17]), not above 4.70; in the assay with HLA-A*30:01 (setting [17]), 5.97; with HLA-B*15:17 [11] (setting [17]) it was 6.04; in the assay with HLA-B*18:01 (setting [17]), 6.01.

On to KMIGNLLSF, for which the pKd with HLA-C*06:02 was not above 4.70; in the assay with HLA-C*07:02 (source organism: Listeria monocytogenes serotype 1/2a str. F6854), 6.18; with HLA-C*15:02, 5.59; with HLA-B*46:01, 5.96.

For orientation: pKd means the Kd on a negative log10 scale, so that one unit is a factor of ten.
